The results in this text go back to ChEMBL document CHEMBL2074368, “Kinetic analysis of calcein and calcein-acetoxymethylester efflux mediated by the multidrug resistance protein and P-glycoprotein” (Biochemistry, 1998).

This data set has as its system CC(=O)OCOC(=O)CN(CC(=O)OCOC(C)=O)Cc1c(OC(C)=O)ccc2c1Oc1c(ccc(OC(C)=O)c1CN(CC(=O)OCOC(C)=O)CC(=O)OCOC(C)=O)C21OC(=O)c2ccccc21. Description: TP_TRANSPORTER: efflux in K562/ADR cells. It counts as functional, cell-based.

As a reminder, the Km is the substrate concentration at which the rate is half of its maximum. On to “ATP-dependent translocase ABCB1 (Homo sapiens)”, for which the Km stood at 0.12 µM.
